In patent US11732027B2, “Protease-activated receptor-2 modulators” (Oasis Pharmaceuticals, LLC, priority 2015, dated 2023):
Numbered stars: 1 amine (or outer) side, 2 acyl side, 3 side chain; on linkers, the order of the positions; unused ones are H or OH. Square brackets hold non-standard residues; d marks the D form. * marks the point of attachment. εLys = N[C@@H](CCCCN[*:1])C(=O)[*:2]; Palmitoyl = CCCCCCCCCCCCCCCC(=O)*; Cit = NC(=O)NCCC[C@H](N)C(=O)O; Ahx = NCCCCCC(=O)O; βAla = NCCC(=O)O

What was measured:
PAR2 = molecular target: T1, PAR2 (Homo sapiens, UniProt P55085); assay: Calcium flux assay, antagonist activity against SLIGRL in SW620 cells endogenously expressing PAR2; assay type: cell-based; conditions: 1 min pretreatment, 8 μM SLIGRL agonist
T1 construct: SW620 human colon adenocarcinoma cells that endogenously express PAR2; endogenous in cells; host or cells: SW620 human colon adenocarcinoma cells
T1 sequence (P55085 26-397): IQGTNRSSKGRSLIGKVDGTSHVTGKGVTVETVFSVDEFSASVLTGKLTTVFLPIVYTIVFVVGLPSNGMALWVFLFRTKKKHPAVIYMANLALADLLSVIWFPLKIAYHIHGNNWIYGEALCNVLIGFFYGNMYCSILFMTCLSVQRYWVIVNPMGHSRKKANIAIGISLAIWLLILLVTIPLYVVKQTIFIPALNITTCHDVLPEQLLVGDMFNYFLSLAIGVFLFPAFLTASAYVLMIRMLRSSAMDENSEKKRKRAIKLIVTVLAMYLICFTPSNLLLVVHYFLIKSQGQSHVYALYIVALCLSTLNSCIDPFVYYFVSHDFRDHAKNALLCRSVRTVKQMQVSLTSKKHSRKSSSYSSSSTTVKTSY
Method: Table 2 provides the antagonist activity for the resulting palmitoylated peptides (SEQ ID NO: 1-11, 13-41, and 70) of Table 1. Table 2 also provides the antagonist activity for the resulting myristoylated peptide SEQ ID NO: 12 of Table 1. Antagonist activity of the peptides were measured using calcium flux assays with SW620 human colon adenocarcinoma cells that endogenously express PAR2. The calcium signal of […] SLIGRL (SEQ ID NO: 73) following 1 min pretreatment with 3 μM or 10 μM of palmitoylated peptides. Final concentration of DMSO vehicle was 0.2%. Antagonist activity of 3 μM and 10 μM peptides against 8 μM SLIGRL (SEQ ID NO: 73; a known PAR2 agonist) was measured by maximal calcium flux. Experiments were repeated at least 2-3 times each and gave similar results.

db/db mouse = assay: Obese-diabetic (db/db) mouse model, daily SC treatment for 3 weeks; assay type: in vivo; conditions: db/db mice, 10 mg/kg SC daily, over 3 weeks
Method: FIGS. 1A to 1B. Male obese-diabetic (db/db) mice, 6-8 weeks of age were purchase from Charles River Labs. The db/db mouse is a […] animal which serves as a model for diabetes, obesity and dyslipidemia. Animals were randomized according to blood glucose and body weight on day −2 and were allowed to eat a normal chow diet ad libitum. Treatment was initiated from day 0 with mice receiving daily subcutaneous (SC) injections (5 mL/kg) at 7-10 AM. HbA1c was monitored on days 0, 7, 14 and 21. Mice (n=10) were treated daily with either 10 mg/kg N-palmitoylated-SEQ70 (PZ-235) or vehicle (“Veh”). […] HbA1c levels reflect long-term blood glucose levels. […]
FIG. 2. Diabetic mice from the experiment in FIGS. 1A and 1B had their morning blood glucose measured thrice weekly.
FIG. 3. Diabetic mice had their blood glucose profile monitored on days 1, 8 and 22. […]
FIGS. 5A to 5B. Diabetic mice had their plasma triglyceride levels measured at baseline and after 3 weeks of treatment with PZ-235 versus vehicle.
FIG. 6. Diabetic mice had their liver triglyceride levels measured after 3 weeks of treatment with PZ-235 versus vehicle. At termination of the 3 week experiment, livers were isolated from the diabetic mice, snap frozen and liver triglycerides measured.

| Molecule | Max (% Inh), maximal calcium flux (PAR2; 3 uM peptide) | Max (% Inh), maximal calcium flux (PAR2; 10 uM peptide) | food intake versus vehicle group (db/db mouse) | weight gain versus vehicle group (db/db mouse) |
| --- | --- | --- | --- | --- |
| 1 (GHENSEKKRKQAIK) [compound 1] | 33% | 85% |  |  |
| 2 (GDHNSEKKRKQAIK) [compound 2] | 23% | 78% |  |  |
| 3 (DSEKKRKQAIKLI) [compound 3] | 49% | 89% |  |  |
| 4 (RSSAIDENSEKKRKSAIK) [compound 4] | 24% | 82% |  |  |
| 5 (AIDENSEKKFKSAIKL) [compound 5] | 18% | 32% |  |  |
| 7 (Pal-AIHHDSE[dP]KRKSAIKL-NH2) [compound 7] | 50% | 84% |  |  |
| 8 (Pal-AIHHDSE[dP]RKSAAKL-NH2) [compound 8] | 16% | 18% |  |  |
| 9 (Pal-GLHHDSEPKRKSAIKL[dI]-NH2) [compound 9] | 75% | 95% |  |  |
| 11 (Pal-PLHHDSEPKR[dK]SAIK[dL]-NH2) [compound 11] | 31% | 95% |  |  |
| 14 (Pal-[εLys]LDENSEKKF[dK]SAIKL[dV]-NH2) [compound 14] | 8% | 26% |  |  |
| 16 (Pal-GLHHDSEPKR[dK][βAla]IK[dV]-NH2) [compound 16] | 17% | 60% |  |  |
| 17 (Palmitoyl-[Ahx]LHHDSEPKR[dK]SAIK[dV]-NH2) [compound 17] | 10% | 66% |  |  |
| 20 (Pal-[εLys]AIDENSEKKFKSAIKL-NH2) [compound 20] | 17% | 86% |  |  |
| 25 (AMDENSEKKYKSAIKL) [compound 25] | 23% | 29% |  |  |
| 30 (GLDENSEPKRKSAIKLI) [compound 30] | 6% | 0% |  |  |
| 31 (GDENHEKKRKQAIK) [compound 31] | 38% | 65% |  |  |
| 32 (PGDENSEKPKRKQAIK) [compound 32] |  | 93% |  |  |
| 33 (GPDENSEKKPRKQAIK) [compound 33] | 23% | 93% |  |  |
| 34 (Palmitoyl-GDENSEKK[Cit]KQAIK-NH2) [compound 34] | 23% | 93% |  |  |
| 35 (Pal-GDENSEKKRKSAIK[dA]-NH2) [compound 35] | 23% | 65% |  |  |
| 36 (GDENSEKKRKQAIKL) [compound 36] | 65% | 65% |  |  |
| 37 (GDENSEKKRKQAIKLI) [compound 37] | 0% | 65% |  |  |
| 38 (GDENSEKKRKQAIK) [compound 38] | 23% | 65% |  |  |
| 39 (GDENSEKRWLWAIK) [compound 39] | 23% | 93% |  |  |
| 40 (GDENSEKKRKWAIK) [compound 40] | 38% | 93% |  |  |
| 41 (MDENSEKKRKRAIK) [compound 41] | 38% | 65% |  |  |
| CCCCCCCCCCCCCCCC(=O)N[C@@H](CCCNC(=N)N)C(=O)N[C@@H](CO)C(=O)N[C@@H](CO)C(=O)N[C@@H](C)C(=O)N[C@@H](CCSC)C(=O)N[C@@H](CC(=O)O)C(=O)N[C@@H](CCC(=O)O)C(=O)N[C@@H](CC(N)=O)C(=O)N[C@@H](CO)C(=O)N[C@@H](CCC(=O)O)C(=O)N[C@@H](CCCCN)C(=O)N[C@@H](CCCCN)C(=O)N[C@@H](CCCNC(=N)N)C(=O)N[C@@H](CCCCN)C(=O)N[C@@H](CO)C(=O)N[C@@H](C)C(=O)N[C@H](C(=O)N[C@@H](CCCCN)C(N)=O)[C@@H](C)CC [SEQ ID NO 70] |  |  | did not vary significantly | did not vary significantly |
